# Experimental data from the supplement of paper PMC6757056.
# ± gives the standard deviation of the averaged measurements.
# B1: library; a variant is named by its letters at N, in order (parent)
# chain: GCUGUCACCGAGAAACUGUGAAGUAUAUCUUAAACCUGGGCACUUAAAAGAUAUAUGGAGUUAGUAGUGCAACCUGCUCGGUCUGAUGAGUCCNNNNNNGGACGAAACAGC
# Tests used:
# [1] = variants of: B1; experiment: normalized RNA/DNA level without ligand (relative to sTRSVctl = 100) (log10 (% of sTRSVctl)); HEK293T; ligand: cyclic di-GMP (c-di-GMP-II aptamer); higher = less ribozyme self-cleavage, higher mRNA level; conditions: reporter: mCherry (pCS4076), ligand present: no
# In short: (§1)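 Library plasmids encoding reporter-linked ribozyme switches (mCherry, or eGFP for some folinic acid experiments) were transfected into HEK293T at 4 µg per 6-well well. Ligand, when used, was added 1 h before transfection. Total RNA was extracted with EDTA 72 h later, then reverse-transcribed, amplified, barcoded and sequenced. RNA level was RNA reads over DNA reads, divided by a spiked-in non-cleaving control (or the top 25 sequences), ×100, log10; only sequences with ≥100 DNA reads were kept.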
# [2] = variants of: B1; experiment: normalized RNA/DNA level with ligand (relative to sTRSVctl = 100) (log10 (% of sTRSVctl)); HEK293T; ligand: cyclic di-GMP (c-di-GMP-II aptamer); ligand concentration (+) RNA-Seq: 1 mM; higher = less ribozyme self-cleavage, higher mRNA level; conditions: reporter: mCherry (pCS4076), ligand present: yes
# In short: as §1
Variant,normalized RNA/DNA level without ligand (log10) [1],normalized RNA/DNA level with ligand (log10) [2]
AGCACA,1.58 ± 0.029,1.72 ± 0.12
AUUGCG,1.713 ± 0.012,1.83 ± 0.09
ACGGUC,1.637 ± 0.014,1.77 ± 0.17
AGUAGC,1.618 ± 0.0046,1.8 ± 0.12
CUGGGG,1.648 ± 0.0018,1.83 ± 0.19
GCCUCU,1.721 ± 0.017,1.87 ± 0.04
UCGUAG,1.63 ± 0.059,1.82 ± 0.11
AACGCG,1.702 ± 0.008,1.82 ± 0.12
GAGUCC,1.8 ± 0.043,1.88 ± 0.064
GAUUGU,1.65 ± 0.037,1.82 ± 0.09
UUUGCG,1.78 ± 0.066,1.88 ± 0.12
GCGGUC,1.29 ± 0.072,1.52 ± 0.09
CGCCGG,1.711 ± 0.011,1.85 ± 0.11
CGUCGC,1.76 ± 0.024,1.87 ± 0.16
CGACCC,1.753 ± 0.014,1.88 ± 0.1
CUGGAU,1.53 ± 0.094,1.73 ± 0.053
AGUUCU,1.69 ± 0.027,1.87 ± 0.056
CUCAUU,1.79 ± 0.079,1.9 ± 0.12
GAUUUG,1.6 ± 0.025,1.76 ± 0.11
CCUUGA,1.63 ± 0.029,1.83 ± 0.095
UUCGUA,1.64 ± 0.021,1.82 ± 0.11
CCCAAC,1.61 ± 0.037,1.82 ± 0.086
UGUGCC,1.85 ± 0.074,1.94 ± 0.14
UUUUUA,1.77 ± 0.038,1.92 ± 0.11

Variant,normalized RNA/DNA level without ligand (log10) [1],normalized RNA/DNA level with ligand (log10) [2]
GCGAUG,1.59 ± 0.06,1.79 ± 0.096
GAGCGG,1.88 ± 0.079,1.96 ± 0.096
GUUUAA,1.54 ± 0.058,1.74 ± 0.086
UACGAG,1.674 ± 0.0019,1.82 ± 0.1
UCACCG,1.75 ± 0.024,1.89 ± 0.12
UCUCCA,1.758 ± 0.012,1.85 ± 0.12
ACUGUU,1.452 ± 0.011,1.67 ± 0.13
ACUGCA,1.64 ± 0.023,1.77 ± 0.1
UUGCAA,1.69 ± 0.075,1.81 ± 0.037
CAACUG,1.75 ± 0.034,1.82 ± 0.13
CACGAC,1.67 ± 0.053,1.83 ± 0.13
CAGUAG,1.724 ± 0.013,1.83 ± 0.096
GCAUUA,1.47 ± 0.089,1.71 ± 0.12
UCCCAC,1.758 ± 0.0044,1.87 ± 0.097
GUGACU,1.671 ± 0.002,1.8 ± 0.089
UAAUGU,1.652 ± 0.0062,1.78 ± 0.087
CUGUGG,1.7 ± 0.048,1.85 ± 0.11
GUGGGG,1.65 ± 0.021,1.8 ± 0.14
CGAAAU,1.42 ± 0.055,1.63 ± 0.12
GUGCGU,1.69 ± 0.052,1.84 ± 0.14
GUUACG,1.65 ± 0.075,1.81 ± 0.083
CGAGGU,1.72 ± 0.038,1.84 ± 0.096
AGAGCU,1.713 ± 0.012,1.84 ± 0.043
GACUGA,1.57 ± 0.041,1.72 ± 0.12

Variant,normalized RNA/DNA level without ligand (log10) [1],normalized RNA/DNA level with ligand (log10) [2]
ACAUAU,1.45 ± 0.097,1.64 ± 0.14
GCUCAC,1.69 ± 0.034,1.83 ± 0.12
UGCACG,1.801 ± 0.014,1.91 ± 0.14
CUCCCG,1.79 ± 0.088,1.91 ± 0.14
GAGAUC,1.711 ± 0.0023,1.81 ± 0.11
CUGUUC,1.64 ± 0.038,1.79 ± 0.12
UCCGGU,1.67 ± 0.024,1.85 ± 0.1
UGGCGG,1.854 ± 0.013,1.93 ± 0.13
AGCUAU,1.7 ± 0.05,1.84 ± 0.12
GAAGUG,1.732 ± 0.0044,1.81 ± 0.095
ACACGU,1.62 ± 0.043,1.83 ± 0.081
GCUUUA,1.63 ± 0.023,1.83 ± 0.1
UUGGAC,1.665 ± 0.0078,1.78 ± 0.08
CGCAGG,1.61 ± 0.034,1.84 ± 0.03
UCCGAU,1.59 ± 0.041,1.79 ± 0.08
ACCUUU,1.63 ± 0.02,1.82 ± 0.081
AAUCGC,1.74 ± 0.018,1.89 ± 0.12
CGCUAG,1.747 ± 0.0046,1.87 ± 0.15
CGCCCA,1.84 ± 0.069,1.91 ± 0.11
GACAAU,1.59 ± 0.062,1.74 ± 0.071
GAGGUG,1.74 ± 0.049,1.84 ± 0.087
ACUUGU,1.668 ± 0.004,1.83 ± 0.1
UUACGU,1.66 ± 0.03,1.8 ± 0.079
AGCAUU,1.66 ± 0.0074,1.84 ± 0.073

Variant,normalized RNA/DNA level without ligand (log10) [1],normalized RNA/DNA level with ligand (log10) [2]
AAAUUC,1.6899 ± 0.00096,1.85 ± 0.11
CAUGGG,1.682 ± 0.0032,1.84 ± 0.094
CAUUCU,1.55 ± 0.07,1.73 ± 0.12
GACCUU,1.69 ± 0.0029,1.86 ± 0.13
UGAUAA,1.633 ± 0.011,1.8 ± 0.089
AGCUCA,1.69 ± 0.013,1.81 ± 0.12
CGACAG,1.8 ± 0.023,1.87 ± 0.091
UAAUAA,1.66 ± 0.018,1.8 ± 0.085
UGCUAC,1.7 ± 0.033,1.85 ± 0.069
AGAAGC,1.56 ± 0.13,1.74 ± 0.077
UCCUAG,1.71 ± 0.018,1.82 ± 0.087
CAAUUA,1.32 ± 0.1,1.53 ± 0.05
UAUGCG,1.78 ± 0.029,1.86 ± 0.1
UCCGUA,1.51 ± 0.1,1.7 ± 0.084
AUCGCG,1.75 ± 0.035,1.84 ± 0.054
CGUUUG,1.71 ± 0.02,1.86 ± 0.069
CGCAUU,1.47 ± 0.073,1.61 ± 0.11
ACCGAC,1.61 ± 0.06,1.77 ± 0.11
UGACUG,1.7 ± 0.033,1.84 ± 0.11
UACGAU,1.63 ± 0.046,1.8 ± 0.15
ACGUGC,1.59 ± 0.036,1.8 ± 0.065
CAUUCA,1.38 ± 0.087,1.56 ± 0.12
UAGAGA,1.51 ± 0.042,1.72 ± 0.089
GCUCGG,1.78 ± 0.018,1.88 ± 0.052

Variant,normalized RNA/DNA level without ligand (log10) [1],normalized RNA/DNA level with ligand (log10) [2]
UCAAGC,1.63 ± 0.031,1.76 ± 0.1
GUACUC,1.54 ± 0.099,1.75 ± 0.041
UCAGAG,1.53 ± 0.045,1.69 ± 0.042
AAGACU,1.66 ± 0.019,1.84 ± 0.057
ACUCGC,1.73 ± 0.027,1.88 ± 0.15
UGAAGA,1.62 ± 0.024,1.77 ± 0.13
UCGCAC,1.697 ± 0.015,1.86 ± 0.084
AUGCCU,1.74 ± 0.044,1.87 ± 0.14
ACCCAU,1.61 ± 0.018,1.79 ± 0.12
GAGAGC,1.71 ± 0.02,1.85 ± 0.12
CCCCUC,1.73 ± 0.0095,1.87 ± 0.079
GUCUAC,1.739 ± 0.0096,1.89 ± 0.14
AUAUAA,1.5 ± 0.042,1.67 ± 0.13
CGACGU,1.66 ± 0.034,1.84 ± 0.048
UCUAUG,1.7 ± 0.034,1.85 ± 0.09
GCCUUG,1.576 ± 0.007,1.81 ± 0.1
GCCGUA,1.57 ± 0.099,1.74 ± 0.068
GGCUGG,1.746 ± 0.013,1.82 ± 0.092
CCAGGG,1.52 ± 0.025,1.77 ± 0.12
CGAUUA,1.28 ± 0.11,1.43 ± 0.12
